Earlier results, collected in PMC6414276.
pKd: −log10 of the molar value. Like-named read-outs stand apart in the source and are kept apart here.

What was measured:
[1] = target: CBP TAZ1 (Mus musculus) (UniProt P45481)
[2] = target: CBP TAZ1 (Mus musculus) (UniProt P45481); remark: listed apart in the source
[3] = target: CBP TAZ1 (Mus musculus) (UniProt P45481); remark: listed apart in the source

UniProt P45481, sequence (P45481 340-439): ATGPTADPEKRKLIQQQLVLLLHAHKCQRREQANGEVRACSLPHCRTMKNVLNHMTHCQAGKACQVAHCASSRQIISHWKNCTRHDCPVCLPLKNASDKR

HIF-1α αC motif (from UniProt Q16665)
pKd [1]: 3.70

HIF-1α 790-826 (from UniProt Q16665)
pKd [2]: 7.33

HIF-1α LPQL-αB motif (from UniProt Q16665)
pKd [3]: < 3.00
